Publication PMC3303827

What was measured:
[1] = target: U266 derived IgE λ light chain (dimer) (human (endogenous in U266)); experiment: SEC; Superdex 75 10/300 GL; 1 g/L light chain in 25 mM PBS pH 7.4; mobile phase 100 mM Na2SO4, 25 mM Na2HPO4 pH 7.4; calibrated with BSA, chymotrypsinogen A, lysozyme
[2] = target: U266 derived IgE λ light chain (dimer) (human (endogenous in U266)); experiment: ESI-Qq-TOF mass spectrometry; nano-spray; sample in 25 mM PBS pH 7.4; spectra deconvoluted by MaxEnt
[3] = target: U266 derived IgE λ light chain (dimer) (human (endogenous in U266)); experiment: ESI-Qq-TOF mass spectrometry; nano-spray; sample in 20 mM HCl pH 2.0 (methods say pH 2.7); spectra deconvoluted by MaxEnt
[4] = target: U266 derived IgE λ light chain (dimer) (human (endogenous in U266)); experiment: SEC; Superdex 75 10/300 GL; 1 g/L light chain in 20 mM HCl pH 2.0; mobile phase 100 mM Na2SO4, 25 mM Na2HPO4 pH 7.4; calibrated with BSA, chymotrypsinogen A, lysozyme

Measured: stoichiometry N

U266 derived IgE λ light chain (dimer) (natural protein)
2: all assays above
